Blank lines part the entries; values can stand above or below the binder they belong to.
Key:
[1] = target: recombinant mouse Galectin-9 (mouse, UniProt O08573 1-353); test: SPR
[2] = target: recombinant human Galectin-9 (human, UniProt O00182 1-355); test: SPR
Sequence of recombinant human Galectin-9 (O00182 whole entry): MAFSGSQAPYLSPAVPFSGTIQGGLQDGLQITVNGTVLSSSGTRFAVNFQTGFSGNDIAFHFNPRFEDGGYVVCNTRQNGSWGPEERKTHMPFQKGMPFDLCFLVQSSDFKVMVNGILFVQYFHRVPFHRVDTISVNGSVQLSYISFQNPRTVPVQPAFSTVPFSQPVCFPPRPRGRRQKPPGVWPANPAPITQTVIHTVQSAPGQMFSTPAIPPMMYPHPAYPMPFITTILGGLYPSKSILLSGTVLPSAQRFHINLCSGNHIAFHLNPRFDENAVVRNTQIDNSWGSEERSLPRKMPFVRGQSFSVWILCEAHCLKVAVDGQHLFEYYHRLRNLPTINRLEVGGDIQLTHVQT

Sequence of recombinant mouse Galectin-9 (O08573 whole entry): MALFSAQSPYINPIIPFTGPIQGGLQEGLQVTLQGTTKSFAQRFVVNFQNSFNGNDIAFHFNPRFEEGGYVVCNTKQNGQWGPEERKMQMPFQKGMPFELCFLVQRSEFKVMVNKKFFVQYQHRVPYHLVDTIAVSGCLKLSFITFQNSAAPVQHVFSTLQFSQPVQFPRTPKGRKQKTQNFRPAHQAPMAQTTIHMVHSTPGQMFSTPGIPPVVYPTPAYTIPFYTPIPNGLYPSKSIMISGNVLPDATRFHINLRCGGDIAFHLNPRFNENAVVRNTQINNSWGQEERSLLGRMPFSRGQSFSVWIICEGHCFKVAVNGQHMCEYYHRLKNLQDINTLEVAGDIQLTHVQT

Kd [1]: ~18 nM
B1: mouse 4-1BB.Fc CRD4 mutant (amino acids 118–187) (Fc fusion, UniProt P20334 118-187, looked up)
chain: TCSLGTFNDQNGTGVCRPWTNCSLDGRSVLKTGTTEKDVVCGPPVVSFSPSTTISVTPEGGPGGHSLQVL

Kd [2]: ~35 nM
B2: human 4-1BB.Fc CRD4 mutant (amino acids 119–186) (Fc fusion, UniProt Q07011 119-186, looked up)
chain: DCCFGTFNDQKRGICRPWTNCSLDGKSVLVNGTKERDVVCGPSPADLSPGASSVTPPAPAREPGHSPQ

Kd [1]: ~11 nM
B3: mouse 4-1BB.Fc, full-length extracellular 4-1BB (CRD1–4, amino acids 24–187) fused to human IgG1 Fc (Fc fusion, UniProt P20334 24-187, looked up)
chain: VQNSCDNCQPGTFCRKYNPVCKSCPPSTFSSIGGQPNCNICRVCAGYFRFKKFCSSTHNAECECIEGFHCLGPQCTRCEKDCRPGQELTKQGCKTCSLGTFNDQNGTGVCRPWTNCSLDGRSVLKTGTTEKDVVCGPPVVSFSPSTTISVTPEGGPGGHSLQVL

Source: article PMC4076583 (The Journal of Experimental Medicine, 2014)
